According to article PMC10783506:

What was measured:
[1] = tested on: LGP2 (insect-cell expressed) (Homo sapiens); assay: fluorescence polarization; conditions: Buffer A: 50 mM MOPS pH 7.4, 5 mM MgCl2, 5 mM DTT, 0.05 mM BSA, 0.01% Tween20, 0-100 mM NaCl (or KCl), with or without ATP, EMSA at 4 C, stopped-flow at 25 C …
[2] = tested on: RIG-I; assay: EMSA; conditions: 60 nM protein, 20 nM RNA, monovalent streptavidin; mainly monomer; m7G cap and 2'-O-methyl on first nucleotide (Cap1); biotin at distal end; Buffer A: 50 mM MOPS pH 7.4, 5 mM MgCl2, 5 mM DTT, 0.05 mM BSA, 0.01% Tween20; 0-100 mM NaCl (or KCl), with or without ATP; EMSA at 4 C, stopped-flow at 25 C …

Substance 3'-overhang HP RNA has a binding signal (fold Kd vs 5'OH blunt HP) ([1]; 100 mM KCl) of 10.

5'OH blunt HP RNA showed a Kd ([1]; 5'OH) of 10 nM.

For 5'ppp blunt HP RNA, the Kd ([1]; 5'ppp) was 10 nM.

For Cap1 ds27 RNA-biotin, the binding signal [2] was 50 % RNA bound.

ds16 DNA showed a Kd ([1]; 0 mM NaCl, ATP had little effect on Kd) of 200 nM.

stem ds26 RNA gave a Kd ([1]; 0 mM NaCl, ATP without effect, 17 bp dsRNA flanked by 4 bp dsDNA ends) of 80 nM.
